Patent publication US20250136687A1 (SHANDONG SIMCERE BIOPHARMACEUTICAL, published 2025)
Like-named read-outs stand apart in the source and are kept apart here.

Assays:
[1] = molecular target: T1, human CD3 on the cell surface (Jurkat cells, expanded human T cells, Jurkat-Lucia NFAT cells, human PBMC) (human, UniProt P07766 23-207; P04234 22-171; P09693 23-182); test: FACS, expanded human T cells
T1 construct: whole, on cells; Endogenous CD3 within the TCR-CD3 complex on cells (also zeta chains and TCR); the cell type is named under assay
T1 sequence (P07766 23-207, chain 1 of 3): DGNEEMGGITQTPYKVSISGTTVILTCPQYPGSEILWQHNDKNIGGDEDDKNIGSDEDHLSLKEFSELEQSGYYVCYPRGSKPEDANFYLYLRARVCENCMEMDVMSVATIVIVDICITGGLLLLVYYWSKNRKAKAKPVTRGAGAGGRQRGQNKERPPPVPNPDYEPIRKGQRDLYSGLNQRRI
T1 sequence (P04234 22-171, chain 2 of 3): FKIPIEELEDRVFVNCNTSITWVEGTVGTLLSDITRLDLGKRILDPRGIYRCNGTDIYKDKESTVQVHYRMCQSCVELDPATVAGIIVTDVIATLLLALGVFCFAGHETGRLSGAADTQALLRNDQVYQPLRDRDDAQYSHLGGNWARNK
T1 sequence (P09693 23-182, chain 3 of 3): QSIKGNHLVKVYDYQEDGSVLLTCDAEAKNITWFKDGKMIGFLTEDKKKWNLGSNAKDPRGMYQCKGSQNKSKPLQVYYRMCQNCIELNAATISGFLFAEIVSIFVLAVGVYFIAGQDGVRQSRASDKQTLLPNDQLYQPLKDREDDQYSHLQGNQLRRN

[2] = molecular target: T1, human CD3 on the cell surface (Jurkat …); test: cell-based or functional assay
[3] = molecular target: T1, human CD3 on the cell surface (Jurkat …); test: FACS, Jurkat cells
Experimental: (§1) The binding of the chimeric antibodies to CD3 on the cell surface was analyzed by detecting the binding of the antibodies to Jurkat cells and human T cells. Suspension cells Jurkat cells were scale-up cultured in T-75 cell culture flasks to the logarithmic growth phase, the supernatant of the medium was discarded by centrifugation, and the cell pellet was washed 2 times with PBS for later use. The expanded human T cells were washed 2 times with PBS for later use. After counting the cells in the previous step, the cell pellet was resuspended with [PBS+2% (w/w) BSA] blocking solution to 4×10⁶ cells/ml, and added to a 96-well FACS reaction plate at 50 μl/well, and then the chimeric antibody to be tested was added at 50 μl/well, and incubated at 4° C. for 1 h. The cells were centrifuged and washed 3 times with a PBS buffer. […] The cells were centrifuged and washed 5 times with PBS, and FACS (FACS Canto™, purchased from BD Company) was used for detection and result analysis. Data analysis was performed by software (CellQuest) to obtain the mean fluorescence […] (MFI) of the cells. And then software (GraphPad Prism8) was used for analysis, data fitting, and EC50 value calculation. The same method was used to simultaneously detect the binding of the chimeric antibodies to endogenous CD3 negative cells MOLT4 cells.

[4] = molecular target: T1, human CD3 on the cell surface (Jurkat …); test: cell-based or functional assay; remark: listed apart in the source
[5] = molecular target: T1, human CD3 on the cell surface (Jurkat …); test: FACS, expanded human T cells; remark: listed apart in the source
Experimental: as §1

[6] = molecular target: T2, cynomolgus monkey CD3 on the surface of expanded monkey T cells (cynomolgus monkey, UniProt Q95LI5 22-198; Q95LI8 22-171; Q95LI7 23-181); test: FACS, expanded monkey T cells, 4 nM antibody
T2 construct: whole, on cells; Endogenous CD3 within the TCR-CD3 complex on T cells expanded from cynomolgus monkey PBMC
T2 sequence (Q95LI5 22-198, chain 1 of 3): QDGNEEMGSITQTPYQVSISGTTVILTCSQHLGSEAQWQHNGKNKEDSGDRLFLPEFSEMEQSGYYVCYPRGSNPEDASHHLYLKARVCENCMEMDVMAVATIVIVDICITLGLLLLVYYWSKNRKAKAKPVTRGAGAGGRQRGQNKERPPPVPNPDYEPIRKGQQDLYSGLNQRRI
T2 sequence (Q95LI8 22-171, chain 2 of 3): as the sequence (P04234 22-171, chain 2 of 3) above, with I5V, N15K, I20V, S32T, D33N, I34N, T64A, S74N, V83L, H141R counted along it
T2 sequence (Q95LI7 23-181, chain 3 of 3): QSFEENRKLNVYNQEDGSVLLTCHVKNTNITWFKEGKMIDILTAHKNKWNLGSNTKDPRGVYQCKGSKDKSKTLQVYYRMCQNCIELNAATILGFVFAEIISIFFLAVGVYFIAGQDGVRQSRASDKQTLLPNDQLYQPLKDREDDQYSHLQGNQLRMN
Experimental: as §1
FACS detection and data analysis were performed on the cryopreserved monkey T cells of Example 2.4 according to the method in Example 5.1.

human CD3ε/δ-His [7] = molecular target: T3, human CD3ε/δ-His (human, UniProt P07766 23-126; P04234 22-105); test: ELISA, coated antigen
T3 construct: Bought recombinant heterodimer with His tag; also called human CD3ε/δ protein
T3 sequence (P07766 23-126, stated change not applied, form in doubt, chain 1 of 2): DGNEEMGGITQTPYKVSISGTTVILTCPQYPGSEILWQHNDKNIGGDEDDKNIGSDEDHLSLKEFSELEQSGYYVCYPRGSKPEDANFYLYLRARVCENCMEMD
T3 sequence (P04234 22-105, stated change not applied, form in doubt, chain 2 of 2): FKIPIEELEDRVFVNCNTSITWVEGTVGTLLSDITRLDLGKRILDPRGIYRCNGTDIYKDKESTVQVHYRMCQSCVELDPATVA
Experimental: (§2) To detect the binding activity of the humanized antibodies to CD3 protein, CD3 protein was diluted with PBS to the final concentration of […], then added to a 96-well ELISA plate at 50 μL/well, and the plate was sealed with a plastic film, and incubated overnight at 4° C. On the next day, the plate was washed 2 times with PBS, and a blocking solution [PBS+2% (v/v) BSA] was added for blocking at room temperature for 2 h. The blocking solution was poured off, and the antibody (initial concentration of 100 nM, and gradient dilution at 1:10) or a negative control antibody was added at 50 µl/well. After incubation at 37° C. for 2 h, the plate was washed 3 times with PBS. […] TMB substrate was added at 50 μl/well, and incubated at room temperature for 10 min, and then a stop solution (1.0 N HCl) was added at 50 μl/well. The OD450 nm values were read by an ELISA microplate reader (Multimode Plate Reader, EnSight, purchased from Perkin Elmer).

[8] = molecular target: T4, recombinant human CD3ε-ECD His protein (human, UniProt P07766 23-126); test: ELISA, coated antigen
T4 construct: extracellular domain; also called human CD3ε-His; CD3ε antigen protein; not shown: His tag
T4 sequence (P07766 23-126): as the sequence (P07766 23-126, stated change not applied, form in doubt, chain 1 of 2) above
Experimental: as §2

[9] = molecular target: T1, human CD3 on the cell surface (Jurkat …); test: cell-based or functional assay; remark: listed apart in the source
human CD3ε/δ-His [10] = molecular target: T3, human CD3ε/δ-His; test: ELISA, coated antigen; remark: listed apart in the source
Experimental: as §2

[11] = molecular target: T4, recombinant human CD3ε-ECD His protein; test: ELISA, coated antigen; remark: listed apart in the source
Experimental: as §2

[12] = molecular target: T1, human CD3 on the cell surface (Jurkat …); test: FACS, Jurkat cells; remark: listed apart in the source
Experimental: as §1

[13] = molecular target: T1, human CD3 on the cell surface (Jurkat …); test: FACS, expanded human T cells; remark: listed apart in the source
Experimental: as §1

[14] = molecular target: T1, human CD3 on the cell surface (Jurkat …); test: FACS, expanded human T cells; remark: listed apart in the source
Experimental: as §1

B1: 40G5c-hIgG1 (antibody, V domains shown)
VH: EVQLVQSGAEVKKPGASVKVSCKASGYTFTNYYIHWVRQAPGQGLEWIGWIYPGDGNTKYNEKFKGRATLTADTSTSTAYLELSSLRSEDTAVYYCARDSYSNYYFDYWGQGTLVTVSS
VL: DIVMTQSPDSLAVSLGERATINCKSSQSLLNSRTRKNYLAWYQQKPGQPPKLLIYWASTRESGVPDRFSGSGSGTDFTLTISSLQAEDVAVYYCTQSFILRTFGQGTKVEIKR
**Q.** What does the source list for B1?
**A.** EC50 [1]: 2.09 nM; max_MFI [1]: 33500 MFI; EC50 (nM), luciferase reporter, Jurkat-Lucia NFAT cells [2]: 1.74 nM; Maximum response value (RLU) [2]: 33400 RLU; EC50 [3]: 0.16 nM; MFI_Max [3]: 6340 MFI; EC50 (nM), luciferase reporter, Jurkat-Lucia NFAT cells [4]: 22.5 nM; Maximum response value (RLU) [4]: 25400 RLU; EC50 [5]: 0.7 nM; MFI_Max [5]: 12300 MFI; MFI at antibody concentration 4 nM [6]: 41000 MFI; EC50 (human CD3ε/δ-His [7]): 0.36 nM; max-OD450 (human CD3ε/δ-His [7]): 2.83 OD450; EC50 [8]: 0.22 nM; max-OD450 [8]: 1.49 OD450; EC50 (nM), luciferase reporter, Jurkat-Lucia NFAT cells [9]: 5.04 nM; Maximum response value (RLU) [9]: 14300 RLU; EC50 (human CD3ε/δ-His [10]): 0.36 nM; max-OD450 (human CD3ε/δ-His [10]): 2.83 OD450; EC50 [11]: 0.22 nM; max-OD450 [11]: 2.59 OD450; EC50 [12]: 0.47 nM; MFI_Max [12]: 11300 MFI; EC50 [13]: 0.46 nM; MFI_Max [13]: 40900 MFI; EC50 [14]: 0.66 nM; MFI_Max [14]: 15400 MFI

B2: F2B-hIgG1 (antibody, V domains shown)
VH: EVQLVESGGGLVQPGRSLRLSCAASGFTFDDYAMHWVRQAPGKGLEWVSGISWNSGSIGYADSVKGRFTISRDNAKNSLYLQMNSLRAEDTALYYCAKDSRGYGDYRLGGAYWGQGTLVTVSS
VL: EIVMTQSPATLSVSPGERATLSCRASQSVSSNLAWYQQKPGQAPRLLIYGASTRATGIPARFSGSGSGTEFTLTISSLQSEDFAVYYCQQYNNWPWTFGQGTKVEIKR
notes: also called F2Bs
**Q.** Which EC50 [1] does the source give for B2 here?
**A.** 7.03 nM

**Q.** What about the max_MFI [1] of the same binder?
**A.** 9270 MFI

**Q.** What about the “EC50 (nM), luciferase reporter, Jurkat-Lucia NFAT cells” value [2] of the same binder?
**A.** 23.7 nM

**Q.** What about the “Maximum response value (RLU)” value [2] of the same binder?
**A.** 14500 RLU

**Q.** And the EC50 [3]?
**A.** 8.77 nM

**Q.** And the MFI_Max [3]?
**A.** 841 MFI

**Q.** And the “Maximum response value (RLU)” value [4]?
**A.** 8220 RLU

**Q.** What about the EC50 [5] of the same binder?
**A.** 10.4 nM

**Q.** And the MFI_Max [5]?
**A.** 1980 MFI

**Q.** What about the “MFI at antibody concentration 4 nM” value [6] of the same binder?
**A.** 63 MFI

**Q.** What about the max-OD450 (human CD3ε/δ-His [7]) of the same binder?
**A.** 0.16 OD450

**Q.** And the max-OD450 [8]?
**A.** 0.05 OD450

**Q.** And the “EC50 (nM), luciferase reporter, Jurkat-Lucia NFAT cells” value [9]?
**A.** 7.41 nM

**Q.** What about the “Maximum response value (RLU)” value [9] of the same binder?
**A.** 6560 RLU

**Q.** And the max-OD450 (human CD3ε/δ-His [10])?
**A.** 0.16 OD450

**Q.** And the max-OD450 [11]?
**A.** 0.16 OD450

**Q.** And the EC50 [12]?
**A.** 6.18 nM

**Q.** And the MFI_Max [12]?
**A.** 2080 MFI

**Q.** And the EC50 [13]?
**A.** 7.56 nM

**Q.** And the MFI_Max [13]?
**A.** 8780 MFI

**Q.** And the EC50 [14]?
**A.** 15.8 nM

**Q.** What about the MFI_Max [14] of the same binder?
**A.** 2360 MFI
